Data as given in patent publication US9580460B2, “Discordant helix stabilization for prevention of amyloid formation” (AlphaBeta AB, priority 2000, dated 2017).

Legend:
[1] = biological target: T1, Aβ(1-40) (Homo sapiens, UniProt P05067); assay: Time-dependent aggregation of Aβ(1-40), amount left in solution after 20,000 xg centrifugation; assay type: biochemical; conditions: in the presence of the peptide; Aβ(1-40) left in solution after 20,000 xg centrifugation
T1 construct: purchased Research Genetics, Huntsville, Ala., USA; host or cells: chemical synthesis
From the text: The effects of the peptides KAD, AAA, and KFFE (SEQ ID NO:1) on the time-dependent aggregation of Aβ(1-40), determined as the amount of Aβ(1-40) left in solution after 20,000 xg centrifugation, were studied. In the presence of AAA, Aβ(1-40) completely aggregated in 10-15 days. In the presence of KAD, Aβ(1-40) completely aggregated in 30-40 days. In the presence of KFFE (SEQ ID NO:1), Aβ(1-40) completely aggregated in about 3 days (FIG. 8).

[2] = biological target: T1, Aβ(1-40); assay: Fibril formation by Aβ(1-40) with tripeptide ligand, electron microscopy; assay type: biochemical; conditions: 100 μM Aβ(1-40), 1 mM ligand peptide, three days at 37° C., PBS pH 7.4, electron microscopy, semi quantitative
Experimental: (§1) Synthetic peptides corresponding to human Aβ fragments 1-40 (amino acid sequence […]; SEQ ID NO:3), 12-24. and 14-23 were purchased from Research Genetics, Huntsville, Ala., USA. Aβ(1-40) was purified by reverse-phase HPLC over a C18 column, using a linear gradient of acetonitrile running into 0.1% trifluoroacetic acid for elution. The purified peptide was lyophilized, stored at −20° C. and dissolved shortly before experiments. The tripeptides and tetrapeptides were synthesized and purified by reverse-phase HPLC (>70% purity) by Interactiva, Darmstadt, Germany
(§2) The relative abundance and morphology of fibrils was determined by electron microscopy after incubating each of the three Aβ peptides (100 μM) for three days at 37° C. in phosphate buffered saline (50 mM sodium phosphate/150 mM NaCl, pH 7.4) in the presence of 1 mM of a specific tripeptide or tetrapeptide ligand. Aggregates were collected by centrifugation at 20,000×g for 20 minutes. The pellets were suspended in a small volume of water by low-energy sonication for 5 seconds. Aliquots of 8 μl were placed on electron microscopy grids covered by a carbon-stabilized formvar film. Excess fluid was withdrawn after 30 seconds, and after air-drying the grids were negatively stained with 2% uranyl acetate in water. The stained grids were examined and photographed in a Philips CM120TWIN electron microscope operated at 80 kV. For a semi quantitative evaluation of the amount of material in the different specimens, the grids (50 mesh) were first scanned at low magnification and the number of larger fibril bundles per grid square estimated. The specimens were subsequently examined at high magnification to judge the size of the fibril bundles, the presence of smaller fibril aggregates, and the morphology of the individual fibrils.

[3] = conditions where Aβ(1-42) readily forms fibrils; Tjernberg et al. 1996, 1999; cited from earlier work
[4] = biological target: T2, Aβ(14-23) (Homo sapiens, UniProt P05067); assay: Fibril formation by Aβ(14-23) with tripeptide or tetrapeptide ligand, electron microscopy; assay type: biochemical; conditions: for reduction of Aβ fibrillation or aggregation: summary statement, Aβ peptide not specified (FIG. 7: Aβ(14-23)); for density of Aβ(14-23) fibrils (fibril formation): 100 μM Aβ(14-23), 1 mM ligand peptide, three days at 37° C., PBS pH 7.4, electron microscopy, semi quantitative
T2 construct: 12-24. and 14-23 were purchased from Research Genetics; purchased Research Genetics, Huntsville, Ala., USA; host or cells: chemical synthesis
Experimental: as §1, §2

[5] = biological target: T3, Aβ(12-24) (Homo sapiens, UniProt P05067); assay: Fibril formation by Aβ(12-24) with tripeptide ligand, electron microscopy; assay type: biochemical; conditions: 100 μM Aβ(12-24), 1 mM ligand peptide, three days at 37° C., PBS pH 7.4, electron microscopy, semi quantitative
T3 construct: 12-24. and 14-23 were purchased from Research Genetics; purchased Research Genetics, Huntsville, Ala., USA; host or cells: chemical synthesis
Experimental: as §1
as §2, with “Excess fluid was withdrawn after 30 seconds, and after air-drying the grids were negatively stained with 2% uranyl acetate in water. The stained grids were examined and photographed in a Philips CM120TWIN electron microscope operated at 80 kV.” left out, “The specimens were subsequently examined at high magnification to judge the size of the fibril bundles, the presence of smaller fibril aggregates, and the morphology of the individual fibrils.” left out

[6] = biological target: T1, Aβ(1-40); assay: Fibril morphology of Aβ(1-40) in the presence of peptides, electron microscopy; assay type: biochemical; conditions: in the presence of the peptide, compared with AAA or acetyl-AAA-amide
Experimental: as §2

[7] = Fibril formation of proteins with long discordant helices, electron microscopy of 20,000×g pellets; assay type: physicochemical; conditions: 10 μM to 100 μM in phosphate buffered saline pH 7.4, 37° C., three days
From the text: The proteins used in these experiments included SP-C (lung SP-C forms amyloid in pulmonary alveolar proteinosis) purified from porcine lungs (Curstedt et al, 1987, Eur. J. Biochem. 168:255-262). PolyVal→polyLeu substituted SP-C (SP-C(Leu)) analogue was synthesized as described by Nilsson et al. (1998, Eur. J. Biochem, 255:116-124) was used in the experiments as was D-analyl-D-alanine transpeptidase from Streptomyces R61 was obtained from Drs. Frére and Joris, University of Liege, Belgium (Frere et al, 1973, Biochem. J. 135:463-468). Triacylglycerol lipase from Candida antarctica and human coagulation factor XIII were purchased from Sigma. For these fibrillation studies the latter three proteins were dissolved in phosphate buffered saline, pH 7.4, in concentrations ranging from 10 μM to 100 μM. SP—C and SP-C (Leu) were dissolved at 100 μM or 250 μM in chloroform/methanol/0.1 M HCl, 32:64:5 (by volume).
To assay for the formation of fibrils, the protein solutions were incubated at 37° C. for three days, then centrifuged at 20,000×g for 20 minutes. The concentrations of SP-C and SP-C(Leu) in the supernatants were determined by amino acid analysis of triplicate samples. Peptide concentration at start of the incubations was 250 μM for SP-C(Leu) and 100 μM for SP-C. […]

T1 sequence (P05067 672-711): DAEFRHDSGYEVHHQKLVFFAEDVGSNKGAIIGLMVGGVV

| Substance | time until Aβ(1-40) completely aggregated [1] | density of Aβ(1-40) fibrils (fibril formation) [2] | density of Aβ(14-23) fibrils (fibril formation) [4] | also measured |
| --- | --- | --- | --- | --- |
| AAA | 10 to 15 days | no significant effect |  |  |
| Aβ(1-28) with alanine substitutions at positions 16, 17, and 20: Aβ(1-28) variant K16A, L17A, F20A (DAEFRHDSGYEVHHQAAVFAAEDVGSNK; Amyloid-beta protein 42; UniProt P05067 672-699, looked up, variant K16A L17A F20A) |  |  |  | fibril formation of the Aβ analogue itself [3]: does not form fibrils |
| KAAE (Synthetically generated peptide) [dipolar tetrapeptide KAAE] |  |  |  | reduction of Aβ fibrillation or aggregation [4]: did not reduce |
| KAD | 30 to 40 days | significant reduction of fibril density | significant reduction of fibril density | density of Aβ(12-24) fibrils (fibril formation) [5]: significant reduction of fibril density; morphology of Aβ(1-40) fibrillar structures [6]: much shorter and more dispersed |
| KFD [dipolar tripeptide, central Ala of KAD replaced with Phe] |  |  | reduced Aβ(14-23) fibril formation, but to a lesser extent than KAD |  |
| KFFE (Synthetically generated peptide) [dipolar tetrapeptide KFFE] | about 3 days |  | slightly promote fibril formation | reduction of Aβ fibrillation or aggregation [4]: did not reduce |
| acetyl-AAA-amide |  | no significant effect |  |  |
| acetyl-KAD-amide (Ac-Lys-Ala-Asp-NH2) |  | equally efficient in reducing Aβ(1-40) fibril formation as the KAD peptide with free termini |  | morphology of Aβ(1-40) fibrillar structures [6]: much shorter and more dispersed |
| coagulation factor XIII: human coagulation factor XIII, purchased from Sigma |  |  |  | fibril formation of the protein itself [7]: form fibrils |
| unsubstituted Aβ(1-28): positions 1-28 of human Aβ |  |  |  | fibril formation of the Aβ analogue itself [3]: forms fibrils |
